Test results taken from patent US20250388694A1 (BOOSTIMMUNE, published 2025).
Residue numbers refer to the chain shown, from its start.

Legend:
[1] = target: T1, Human TCTP (translationally controlled tumor protein) (human, UniProt P13693 1-172); experiment: SPR, Biacore 8K, human TCTP immobilised on CM5 chip, antibody as analyte, 1:1 model
T1 construct: also called HRF; Tpt1
T1 sequence: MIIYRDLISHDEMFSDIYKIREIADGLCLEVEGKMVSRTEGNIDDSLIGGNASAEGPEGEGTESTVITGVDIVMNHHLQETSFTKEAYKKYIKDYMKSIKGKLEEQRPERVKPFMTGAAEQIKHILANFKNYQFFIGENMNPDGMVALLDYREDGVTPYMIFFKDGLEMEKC
Method: The antigen binding capacity of antibodies selected in Example 1 was analyzed using a SPR technique. The device used was Biacore 8K (Ge Healthcare). Human TCTP was immobilized on a chip, and antibodies were shed at 6 or 7 different concentrations. A CM5 chip (GE Healthcare, Cat. 29-1275-56), a regeneration buffer (10 mM glycine-HCl (GE Healthcare)), and a driving buffer HBS-EP+, and the like were used. For kinetic analysis, the binding time was set to 100 or 120 seconds, the flow rate was set to 30 or 50 μl/min in the binding phase, and in the dissociation phase, the dissociation time was set to 300 or 360 seconds, and the flow rate was set to 30 or 50 μl/min. The fitting was carried out using a 1:1 combined model, and BIACore Evaluation Software (GE healthcare) was used as the evaluation software.

[2] = target: T1, Human TCTP (translationally controlled …); experiment: competition ELISA: human TCTP coated at 1 µg/ml, 150 nM TLR2 plus titrated antibody, bound TLR2 detected; % inhibition of TLR2-TCTP binding
mouse TCTP = target: T2, mouse TCTP (mouse, UniProt P63028 1-172); experiment: ELISA on mouse TCTP, binder titrated as scFv (axis [scFv] Log(nM)), OD450 [panel Mouse TCTP]
T2 sequence (looked up): T1 sequence with M13L, N42A, I67V, I99L, R107K, K130N, Y159F

[3] = target: T1, Human TCTP (translationally controlled …); experiment: ELISA on human TCTP, binder titrated as scFv (axis [scFv] Log(nM)), OD450 [panel Human TCTP]
[4] = target: T1, Human TCTP (translationally controlled …); experiment: ELISA, human TCTP coated at 1 µg/ml, antibody titrated, OD 450 nm
Method: ELISA was carried out to quantitatively analyze the binding capacity of selected antibodies to antigens. To this end, human TCTP was attached to an ELISA plate at a concentration of 1 μg/ml and then treated with antibodies of various concentrations to check the relative binding capacity. As a result of the measurement, all of antibodies Ab1, Ab2, Ab3, Ab4, Ab5, Ab6, Ab7, Ab8, Ab9, Ab12, Ab13, Ab14, Ab15, Ab17, Ab18, Ab19, Ab20, Ab21, and Ab22 were confirmed to bind well to human TCTP (FIGS. 1a and 1b).

B1: Ab19 (antibody, V domains shown)
VH: QVQLQQSGPGLVKPSQTLSLTCAISGDSVSSSSAAWNWIRQSPSRGLEWLGRTYYRSKWYNDYAESVKSRITINPDTSKNQFSLQLNSVTPEDTAVYYCARRLTIVRGVMRGGMDVWGQGTTVTVSS
VL: DIVMTQSPDSLAVSLDERATINCKSSQNLLYSANNKDYLAWYQQKPGQPPKLLIYWASTRYSGIPDRFSGSGSGTDFTLTISSLQAEDVAVYYCQQYYSTPWTFGQGTKVEIK
notes: also called antibody Ab19
[1]
  Kd: 2.77 nM

B2: Ab20 (antibody, V domains shown)
VH: B1 VH with Y54F, P75A
VL: B1 VL with A12T, V13G, L39I, P49S, T59I, I64V, Y98F
notes: also called antibody Ab20
[2]
  IC50 (read off the curve): ~10 nM
[1]
  Kd: 0.704 nM

B3: Ab12 (antibody, V domains shown)
VH: QVQLVQSGAEVKKPGASVKVSCKASGYTFTSHAVHWVRQAPGQRLEWMGWINAGKGNTKYSQKFQGRVTITRDTSATTAYMELSSLRSEDTAVYYCARGRAVAFDPWGQGTLVTVSS
VL: RSALTQPPSASGSPGQSVTVSCTGTNSDIGGYNYVSWYKQHPGNAPKLMIYEVNKRPSGVPDRFSGSKSGNTASLTVSGLQTEDEADYYCASYAGDNNLVFGGGTKLTVL
notes: also called antibody Ab12
[2]
  IC50 (read off the curve): ~10 nM
[1]
  Kd: 0.168 nM

B4: Ab10-1 (antibody, V domains shown)
VH: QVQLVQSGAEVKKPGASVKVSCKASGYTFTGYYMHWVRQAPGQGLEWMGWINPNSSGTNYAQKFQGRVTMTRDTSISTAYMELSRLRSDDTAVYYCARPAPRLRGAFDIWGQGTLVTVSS
VL: QSVVTQPPSVSAAPGQKVTISCSGSSSNIGNKKVSWYQQLPVTAPKLLIYDDNKRPSGIPDRFSGSKSGTSATLGITGLQTGDEADYYCATWDSSLRAVVFGGGTKLTVL
notes: Single-residue CDR mutant of Ab10; also called antibody Ab10-1; mutant of Ab10
Mouse TCTP
  binding result: binds
[3]
  EC50 (read off the curve): ~8 nM

B5: Ab10-10 (antibody, V domains shown)
VH: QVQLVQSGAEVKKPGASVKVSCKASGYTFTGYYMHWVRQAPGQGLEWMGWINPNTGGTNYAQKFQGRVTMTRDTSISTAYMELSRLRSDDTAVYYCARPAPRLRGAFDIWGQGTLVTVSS
VL: B4 VL
notes: Mutant of Ab10 made to prevent post-translational modification; also called antibody Ab10-10; mutant of Ab10
Mouse TCTP
  binding result: binds
[3]
  binding result: binds

B6: Ab10-4 (antibody, V domains shown)
VH: not shown
VL: B4 VL
notes: Single-residue CDR mutant of Ab10; also called antibody Ab10-4; mutant of Ab10
Mouse TCTP
  binding result: binds
[3]
  binding result: binds

B7: Ab10-3 (antibody, V domains shown)
VH: not shown
VL: B4 VL
notes: Single-residue CDR mutant of Ab10; also called antibody Ab10-3; mutant of Ab10
[2]
  IC50 (read off the curve): ~20 nM
Mouse TCTP
  EC50 (read off the curve): ~5 nM

B8: Ab10-9 (antibody, V domains shown)
VH: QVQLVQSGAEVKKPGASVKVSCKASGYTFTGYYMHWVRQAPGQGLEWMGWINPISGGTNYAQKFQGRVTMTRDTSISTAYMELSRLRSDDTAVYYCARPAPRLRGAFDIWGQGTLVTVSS
VL: B4 VL
notes: Mutant of Ab10 made to prevent post-translational modification; also called antibody Ab10-9; mutant of Ab10
Mouse TCTP
  binding result: binds
[3]
  binding result: binds

B9: Ab10-2 (antibody, V domains shown)
VH: not shown
VL: B4 VL
notes: Single-residue CDR mutant of Ab10; also called antibody Ab10-2; mutant of Ab10
Mouse TCTP
  binding result: binds
[3]
  binding result: binds

B10: Ab10-8 (antibody, V domains shown)
VH: not shown
VL: B4 VL with A90V
notes: Single-residue CDR mutant of Ab10; also called antibody Ab10-8; mutant of Ab10
Mouse TCTP
  binding result: binds
[3]
  binding result: binds

B11: Ab10-5 (antibody, V domains shown)
VH: not shown
VL: B4 VL
notes: Single-residue CDR mutant of Ab10; also called antibody Ab10-5; mutant of Ab10
Mouse TCTP
  binding result: binds
[3]
  binding result: binds

B12: Ab10-6 (antibody, V domains shown)
VH: not shown
VL: B4 VL with N31T
notes: Single-residue CDR mutant of Ab10; also called antibody Ab10-6; mutant of Ab10
Mouse TCTP
  EC50 (read off the curve): ~9 nM
[3]
  EC50 (read off the curve): ~1 nM

B13: Ab10-7 (antibody, V domains shown)
VH: not shown
VL: B4 VL with K32F
notes: Single-residue CDR mutant of Ab10; also called antibody Ab10-7; mutant of Ab10
Mouse TCTP
  binding result: binds
[3]
  EC50 (read off the curve): ~20 nM

B14: Ab8 (antibody, V domains shown)
VH: QVQLVQSGAEVKKPGASVKVSCKASGYTFFSYAMHWVRQAPGQRLEWMGWINAGNGNTKYSQKFQDRVTITRDTSATTAYMELSSLRSEDTAVYYCASWVFDYWGQGTPVTVSS
VL: DIVMTQTPLSSLVTLGQPASISCRSSQSLVHRDGNTYLSWLQQRPGQPPRLLIYKISNRFFGVPDRFSGSGAGTDFTLKISRVEAEDVGVYYCMQATQFPHTFGQGTKLEIK
notes: From Beacon screening; also called antibody Ab8
[2]
  IC50 (read off the curve): ~6 nM
[4]
  EC50 (read off the curve): ~20 ng/mL
[1]
  Kd: 14 nM

B15: Ab18 (antibody, V domains shown)
VH: QVQLQQSGPGLVKPSQTLSLTCAISGDSVSSNSAAWNWIRQSPSRGLEWLGRTYYRSKWYNDYAVSVKSRITINPDTSKNQFSLQLNSVTPEDTAVYYCARGGAAVFDYWGQGTLVTVSS
VL: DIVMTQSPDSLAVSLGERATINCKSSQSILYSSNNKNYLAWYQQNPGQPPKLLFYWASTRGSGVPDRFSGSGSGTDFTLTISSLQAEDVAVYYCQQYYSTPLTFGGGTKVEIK
notes: also called antibody Ab18
[4]
  binding result: binds

B16: Ab13 (antibody, V domains shown)
VH: B15 VH
VL: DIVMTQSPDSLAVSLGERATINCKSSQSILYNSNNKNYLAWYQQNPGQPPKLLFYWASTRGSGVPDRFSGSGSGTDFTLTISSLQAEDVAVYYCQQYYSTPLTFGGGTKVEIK
notes: also called antibody Ab13
[4]
  EC50 (read off the curve): ~10 ng/mL

B17: Ab17 (antibody, V domains shown)
VH: B15 VH with R56K, I71M, A104S
VL: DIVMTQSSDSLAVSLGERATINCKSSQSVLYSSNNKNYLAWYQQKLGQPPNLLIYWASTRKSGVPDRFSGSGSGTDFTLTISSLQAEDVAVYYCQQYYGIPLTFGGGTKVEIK
notes: also called antibody Ab17
[1]
  Kd: 1.23 nM

B18: Ab5 (antibody, V domains shown)
VH: QVQLVQSGAEVKKPGASVKVSCKASGYIFISYAMHWVRQAPGQRLEWMGWINAGNGYTEYSQKFQGRVTITRDTSALTAYMELRSLRSEDTAVYYCARRGYFDWWAFDYWGQGTLVTVSS
VL: EIVLTQSPDFQSVTPKEKVTITCRASQSIGSSLHWYQQKPDQSPKLLIKYASQSFSGVPSRFSGSGSGTDFTLTINSLEAEDAATYYCHQSSSLPQTFGQGTKVEIK
notes: From Beacon screening; also called antibody Ab5
[4]
  binding result: binds

B19: Ab6 (antibody, V domains shown)
VH: QVQLQESGPGLVKPSGTLSLTCAVSGGSISSSNWWSWVRQPPGKGLEWIGEIDHSGTTTYNPSLKSRVTMSVDQSKNQFSLKLSSVTAADTAVYYCARDGSGSYEGYWGQGTLVTVSS
VL: DIQMTQSPSSLSASVGDRVTITCRASQAISNHLAWFQQKPGKAPKSLIYAASSLQSGVPSKFSGSGSGTDFTLTISSLQPEDFATYYCQQYHSYPITFGQGTRLEIK
notes: From Beacon screening; also called antibody Ab6
[1]
  Kd: 72.8 nM

B20: Ab7 (antibody, V domains shown)
VH: QVQLQESGPGLVKPSETLSLTCAVSGGSISSSNWWSWVRQPPGKGLEWIGEIYHGVTTYNPSLKSRVTISVDNSKNQFSLKLSSVTAADTAVYYCARDGSGSYEGYWGQGTLVTVSS
VL: B19 VL with A28D, H32Y, S93Y
notes: From Beacon screening; also called antibody Ab7
[1]
  Kd: 107 nM

B21: Ab14 (antibody, V domains shown)
VH: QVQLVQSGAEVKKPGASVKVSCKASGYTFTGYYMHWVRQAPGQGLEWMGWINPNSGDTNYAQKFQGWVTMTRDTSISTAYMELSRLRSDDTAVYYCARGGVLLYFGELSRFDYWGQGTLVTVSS
VL: QSALTQPPSASGSPGQSVAISCTGTSSDVGGYNYVSWYQQHPGKAPQLLIYEVTKRPSGVPDRFSGSKSGNTASLTVSGLQAEDEADYYCASYAGDNNLVFGGGTKLTVL
notes: also called antibody Ab14
[4]
  binding result: binds

B22: Ab15 (antibody, V domains shown)
VH: QVQLVQSGAEVKKPGASVKLSCKAAGYTFTVNAMHWVRQAPGQGLEWMGWINAGTGKTKYSQKFQGRLTITRDTSASTAYMHLSGLRSEDTAVYYCARGRAVAFDPWGQGTLVTVSS
VL: B21 VL with A19T, N33D, G43D, Q47K, L49M, T54N, A91N, D96N
notes: also called antibody Ab15
[4]
  binding result: binds

B23: Ab4 (antibody, V domains shown)
VH: QVQLVQSGAEVKKPGASVKVSCKASGYTFTSNAMHWVRQAPGQRLEWMGWINAGNGNTKYSQKFQGRVTITRDTSASTAYMELSSLRSEDTAVYYCARGYYDILTGYYTTDAFDIWGQGTMVTVSS
VL: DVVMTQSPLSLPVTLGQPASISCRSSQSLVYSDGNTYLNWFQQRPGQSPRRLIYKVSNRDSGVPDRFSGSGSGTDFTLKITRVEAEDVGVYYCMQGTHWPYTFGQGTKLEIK
notes: From Beacon screening; also called antibody Ab4
[4]
  binding result: binds

B24: Ab9 (antibody, V domains shown)
VH: QVQLQQSGPGLVKPSQTLSLTCAISGDSVSSNSAAWNWIRQSPSRGLEWLGRTYYRSKWYNDYAVSVKSRITINPDTSKNQFSLQLNSVTPEDTAVYYCAREGITVGRGVMLYFDLWGRGTLVTVSS
VL: DVLMTQSPLSLPVTLGQPASISCRSSQSLVYSDGNTHLKWFQQRPGQSPRRLIYKVSKWDSGVPDRVSGSGSGTDFTLKISRVEAEDVGVYYCMQGTHWPPTFGQGTKVEIK
notes: From Beacon screening; also called antibody Ab9
[4]
  binding result: binds
